Measurements from patent US20230416343A1 (SORRENTO THERAPEUTICS, published 2023).

Target: S protein of live SARS-CoV-2 WA-1/2020 isolate (SARS-CoV-2, UniProt P0DTC2 14-1273)
Assay: cell-based or functional assay

B1: S1D7270LALA antibody (STI-2020) (antibody, V domains shown)
VH: EVQLVESGGGLIQPGGSLRLSCAASGFTVSSNYMSWVRQAPGKGLEWVSIIYPGGSTEYADSVKGRFTISRDNSRNTLYLQMNSLRAEDTAVYYCARELGYYGMDVWGQGTTVTVSS
VL: DIQMTQSPSSVSASVGDRVTITCRASQGISTWLVWYQQKPGKAPNLLIYGASSLQSGVPSRFSGSGSGTDFTLTISSLQPEDFATYYCQQANAYPYTFGQGTKLEIK
IC50, inhibition of cytopathic effect (CPE) on Vero E6 cells, live virus: 0.055 µg/mL
